The nature of the data set: soluble on expression in E. coli; label from the status in PepcDB or PDB records.
With “MIHSNEPLPYAIEYAKSGRSTCKTCKKNIALDQLRMSMNRPSTFFDGNMDSWFHYNCFWNKMIRGRDDINISSIRGVDWLRWEDQEKLRQEIQHFKTASPPTLTPLFSTTTVILSTIKTEKSLSNRGKCGKCGQNFERGEIKAHNKGKANHFECFLQEFDKISGTVEDIPGWADYEANFKIKATGEYVEALAAKGGSTEPATPASASPTPPEAETPVLSAEGSPESSNKRPASAEIIEIDGEGNPDENDFAKKRRMKKEARLMEVQKKRMKKQSDLLWEYRQIFERMPYTDNISILRENEQDIPEGHDRTAQDVFHEKTKNDWIYRKHFRKMPGMFSYVETDYSEFVGTNNGHKKKITPGSKITPGSKTLLPKSVKEVVMSIFDVENMKSALKSFEIDVNKMPLGRLSHNQINLAFEVLNDISDLLVKLPIDASKILDFSNKFYTIIPHNFGMRVPEPIDSFHKIKEKNNMLNALLDIKFAYDQISGGDVPASTSLSIDPVDINYRKLKCIMEPLQQGCDDWNMIHQYLKNTHGATHDLKVELIDILKVNRDNESSKFKRHIGNRRLLWHGSGKMNFAGILGQGLRIAPPEAPVSGYMFGKGVYFADMFSKSFFYCRANAKEEAYLLLCDVALGNVQQLMASKNVSRQTLPAGFQSVQGVGRQCPREIGSYKNPDGYTVPLGLTYMQLQGKQNVDYHLLYNEFIVYDVDQIQLKYLVRVKMHHARHL”, the “soluble on expression in E. coli” value is recorded as “not soluble”.

“SVCAAQNCQRPCKDKVDWVQCDGGCDEWFHQVCVGVSPEMAENEDYICINCA”: the “soluble on expression in E. coli” value is given as “soluble”.

Take “MSLTALQQMTVLFVDDEEIAREQMKMVLSSFCKNTICVGSADQALAALQEHHPDIVLTDIRMPGLSGIELLNAVKQKDASVAVVIVSAHSESEYLLDAFRYKADGYLLKPFNFHEMLELLSDIATQKEAASSERKQGPDNRDFLLKILDTLGGRRAEIMEYVINHLDADNLFHGTYDEVAEALSASKPTVVATFQIMLEKNVLTRLKYGTYRMNVDATEGHHHHHH”: the “soluble on expression in E. coli” value is given as “soluble”.

Regarding “NNLLYKRWVKQRAADVDKWSDGRLGYVHIQSMGDDSFRSVYSDILGKYNNREGIVIDTRFNGGGRLHEDIEVLFSGKKYFTQVVRGREACDMPSRRWNKPSIMLTCEANYSNAHGTPWVYSHQKLGKLVGMPVPGTMTSVSWERLQDPSLVFGIPVIGYRLPDGSYLENTQLEPDIKVANSPETIVKGEDTQLKTAVEELLKELPAGKGKKH”, the “soluble on expression in E. coli” value was “not soluble”.

Take “FDISVLSVAPLRQGETMKQGIDSAVSLAKAVDNMGYKRIWFAEHHNHDAYASAATVSIVQHILANTKDIRVGSGGIMLPNHSPLIVAEQFGTLETLYPNRVDLALGRAPGTDQKTADVIRRSNHNGVFFFEREVNDILRFVGDKSVQGEVRAYPGIGTHVPVFVLGSSTDSAEIAAKLGLPYAFGAQFSPHSMEEALSIYRENFQPSSYLQEPYVIACINVIAAESIDEASFISASHLQVYIDIYTNNLSKLIPPTENFLESLSQFELEILHSRLGYTIMGDRETIRRELIDFQQMYHADELIVLSNIYELSKEIQSYEILKQVVDELFKKRM”: the “soluble on expression in E. coli” value is given as “not soluble”.

As for “MAHHHHHHMGTLEAQTQGPGSMGSLSTSISSITTNTTNLGNSTAAALGGGATYDPATGAISAPSYTTYNANGTTATNTSVGAAIDNINANGIKYFHANSTDPDSVATGTNSVAIGPNAVANVDYSVAIGSGATTSAAVPVASASVGGLTFGGFAGSAPIGVFSVGAPGAERQITNVAAGRISAASTDAVNGSQLYATNSN”, the “soluble on expression in E. coli” value is “soluble”.

Take “MIPLFNFAIKQFMNQRMKNIRGFMEHPIETQQRVLKNLLQQAALTEWGKTHGYKDIQSNEQFAQQVPVSTYETFYPWIERCLKGEQQILWQSDIDWFSKSSGTTNAKSKFIPVSKESLKDCHYKGGMDLLTLYFDNAPESKLFQGKSLAVGGSCSPNPHRDNSKIGDISAVIMANLPTWAQYARTPSIQTALMNEWEAKIDKLAEECSKENVTNLSGVPTWAVLLLEYMLEKSGKENMLEIWPHFECFFHGAVSFHPYKTAFQKFFPSDKVRYMETYNASEGFFGVQDDLSRDDLLLYLDHGIYYEFIPIDEIDAEFPKTISLEQVQLNEAYALVISTNSGLWRYNVGDVVRFTSITPYRIKITGRTKHYINVFGEELMVENAEMAVSKACEATNAVLANFTAGPIYFNNENKGGHEWIIEFETAPGDKDRFTQLLDQFLKELNSDYEAKRYKDMALLLPTIHFVPEGTFYKWLKLKGKLGGQHKVPRLSNNREYLEDILTKCL”: the “soluble on expression in E. coli” value was “not soluble”.

For the sequence “MARDGGVSCLRRSEMMSVGGIGGIESAPLDLDEVHVLAVDDSLVDRIVIERLLRITSCKVTAVDSGWRALEFLGLDNEKASAEFDRLKVDLIITDYCMPGMTGYELLKKIKESSNFREVPVVIMSSENVLTRIDRCLEEGAQDFLLKPVKLADVKRLRSHLTKDVKLSNGNKRKLPEDSSSVNSSLPPPSPPLTISPESSPPLTVSTESSDSSPPLSPVEIFSTSPLSSPIDDEDDDVLTSSSEESPIRRQKMRSPGLD”, the “soluble on expression in E. coli” value is recorded as “not soluble”.

In the case of “MGSDKIHHHHHHMNNLYHLKVRCSSLHKIIGEPKSKADKEAGKLTDTAKSAVREMAKFDLFGYNAFEGNKYTQKGNELEEQAIKLSGVTRGLALKKNTERRENEFITGECDIYVPSRKLIIDTKCSWDIGSHPFFTDEAQEKAKKAGYDIQMQGYMWLWDCDQAQIDFVLFPTPLNLISAYDSDFKLIDLVEQIPQIRRITTVIIQRDNELIDKIKERVSAAQKYYDQLISEMS”, the “soluble on expression in E. coli” value is given as “not soluble”.

For the sequence “MGSDKIHHHHHHMTSQYKASRFATPRDMPEQTYRLSNVCLPAPLSMGELETFSAISRQVSPLRKRHTLFEQGEAFRSLYIVRCGSLKQVYRDITREEHVTQFYLPGEVVGLDALSSGFHPGATIALETTSVCEIGPESIEELAHGDRTERGVGGCFLRVMSRAMHQERMMVRLFLNRTSDVRLASFLLALSGRFRQQGYSPFCFRLSMSRSDIGNYLGLAVETVSRLLGRFQHLGLLTAKGREIRIDDLEALAALADGRSRHSIWDTADEAPERLASMSTH”, the “soluble on expression in E. coli” value was “not soluble”.

Turning to “MSLSILNSLKNIAFIGFYFIFAVNKMSRADEGRLIHLAKKREREKEDIEQQLRKLEEDKEKCRVGITNKFMANYETVEEVVKSKTYGLVSLDDMKNIQKNEISNRDLQVARGDQSSSTQSKDSQEAREKEEHVAKHTQKRFLSFAFDDEEDEEDAAPIIPKKRVGMDPTVDTSFLPDKEREEFLRKKKESLAAEWRVKQDAEKNEEITVAYAYWDGSSHRKNMKIKKGNTISQCLGRAIEALKKEFTELKSCTAENLMFVKEDLIIPHFYTFQDFIVTKAMGKTGPLFVFDSASDVRIRQDAALDYGESHPAKIVLRSWYEKNKHIYPASRWEPFVPSKKYGRNFDDLSDL”, the “soluble on expression in E. coli” value is given as “not soluble”.

With “MAELYYEDNRAYSYTQSFLKMFYLIFGQAYSRDYLSIDKYNKLCSNKDTKIHMPKLKIDEETNIVFFSKEEMQQLDNYFKGTNVETAYLLGKYCGLRINECFGLKWDKIDLKNGTITIDRQMQYQNGMIKLVPLKTRNAKRKIYMCSKLKEYFTNLMQQQEKYKTELAELRQQKQTLIKDIQGNTISSLELVNSMPIGRMQTVNAMKYHTRTLKEKYHIDFKYHYLRHTYGTTLATLNTPEHLLCNQMGHSSSSVTHKYYIGISKQGIDELLKNLERV”, the “soluble on expression in E. coli” value is reported as “not soluble”.

In the case of “AARQMEALNRGLVAVKTDGGIFVSWRFLGTENASVLFNVYRDGQKLNAAPVKTTNYVDKNGSAGSTYTVRAVVNGTEQPASEKASVWAQPYHSVPLDKPAGGTTPKGESYTYSANDASVGDVDGDGQYELILKWDPSNSKDNSQDGYTGDVLIDAYKLDGTKLWRINLGKNIRAGAHYTQFMVYDLDGDGKAEVAMKTADGTKDGTGKVIGNANADYRNEQGRVLSGPEYLTVFQGSTGKELVTANFEPARGNVSDWGDSYGNRVDRFLAGIAYLDGQRPSLIMTRGYYAKTMLVAYNFRDGKLSKLWTLDSSKSGNEAFAGQGNHNLSIADVDGDGKDEIIFGSMAVDHDGKGMYSTGLGHGDALHTGDLDPGRPGLEVFQVHEDKNAKYGLSFRDAATGKILWGVYAGKDVGRGMAADIDPRYPGQEVWANGSLYSAKGVKIGSGVPSSTNFGIWWDGDLLREQLDSNRIDKWDYQNGVSKNMLTASGAAANNGTKATPTLQADLLGDWREEVVWRTEDSSALRIYTTTIPTEHRLYTLMHDPVYRLGIAWQNIAYNQPPHTSFFLGDGMAEQPKPNMYTPLEHHHHHH”, the “soluble on expression in E. coli” value is reported as “soluble”.

Turning to “MVWTYTYDLDNQLISANKTGSSNSLAYDGAGRLRQTTLAGTITGLTYDGVDLVAEYNSGGTLLRRYVHGPGVDEPLVWYEGTTTTNKTWLYQDQLGSVIGTANSAGTSTAIHSYGPYGEPNIATGIRFRYTGQQFLGSLNLYYYKARFYSPALGRFLQTDPIGIADDLNLYAYVGNNPINFNDPSGLSAAAASMLLGKLGSWGRENAGTLTEIGIGFTPAGFYTDLYSAVAGRTPITGDSLSGWERVAILIPGVSEIRNAGRIGSSIQGVAESTIKQVNPTNLIPTQTRSEMSGSQIKRLEKDMRTNGFDQNKPIDAVRRTDGRLEIQDGHHRVEAAKRAGIDQIPVQIWEKLEHHHHHH”, the “soluble on expression in E. coli” value is “not soluble”.

Take “GPGSMRVDVEAVFEKIRPALEVAEVGAWSKTDITTFMSLVSGFCDIQRQQLRARRGKRRDGHDCEQNVDKEGGCEDGCGVRGEDGDKEDEASLEADSVVVLEIRRSLTKLRHYLQKRIPYGSISEPVVPPAPTSPQEGENSCGGRGAYKALQSSKPVEPPVCAVDAFLYLEEDIDALADQGHISREYCRSCGSVDIGLCQFITHSFSLEQLIFLSCFLLPSFGDTSYCLTSDNVWRPRHKNCHTVAAAFSCEHVVEVGSRLGIVPMSCYFASEQQRLLNTRRVTAIELDKELVALQQEVFQKFARGPTAAHLNLVHSDCFEGEGLEALRSADIIILHNIFEYFTASAEEHLRSWKRLRAAVVRSGQLLVCCPPLQETLAAFSEDCVRKVFINEQDKVDFVHVHQSNSNAGRISRKRCRQPPQEHSFTLDQWWRSWVKEIDVEHIRRSFLTAQRFCEEDHPCDSSYGDADDELVKELKDMRVYMVQ”: the “soluble on expression in E. coli” value was “not soluble”.

Take “MSLYSSENDYIILEDKTATGKKRDWKGKKRRTNLMAEHYEALQSKTGIPYYGKKAEKLCSCAECLSFKRDPETGKLKLYQAQFCKVRLCPMCAWRRSLKIAYHNKLIVEEANRQYGCGWIFLTLTVRNVEGDGLKPMIADMMKGWNRLFGYKRVKVATLGYFRALEITKNHEEDTYHPHFHVLLPVKKSYFTHNYIKQSEWTSLWKRAMKLDYTPIVDIRRVKGRAKIDAEQIESDVREAMMEQKAVLEISKYPVKDTDVVRGNKVTEDNLNTVFYLDDALSARRLIGYGGILKEIHKELNLGDAEDGDLVKIEEEDDEVANEAFEVMAYWHPGIKNYIIREGHHHHHH”: the “soluble on expression in E. coli” value is reported as “not soluble”.

As to “MSLKITELSRDLTTGLTTATTSIADYFFGNTHHSHHVFYLNLTVLKAKRAAKVENKKFIDLKLIKLTSGNGGNGCVSFFKDNFKPMGPPDGGDGGNGGSIYLNVVDKNITSLHGLQKRYVAKGGQPGKGSQLDGKSGDDIIIDIPLGTIVRWIPDPQDFKKFVSQREGDALNDVFMEFDIDDRDFIQLNRGGYRPGEGWIFKEHDEEYFRDKDFFQDLNEKVTGYDEELLFEESYNDRFPIVGLDCNQVTQKPLLLLRGGKGGLGNMHFLTKEIKGPRFCKMGRPGITANFLLELKLIADLGLVGLPNAGKSSLLRAISKARPRVGHWEFTTLQPTVGTIFTRIDKDPFTVADIPGIIKGASQNKGMGLDFLRHIERSGGLVFVVSLESANPVDDLKILLEEVGPRRMKDKNVLVVATKADLSSEGANFKVLRDYIEHNHSEWKIVPVCAPKGENVERCIKLMSEIAQTKKKEGHHHHHH”, the “soluble on expression in E. coli” value is on record as “soluble”.

These data come from the DeepSol protein solubility set.
